This passage reports coupling efficiency (% total hexon protein coupled) and coupling efficiency (% hexon coupled) results from patent US20240240203A1.

In assay [1] the target is Ad5 hexon capsid protein with DogTag inserted into the HVR5 loop, on Ad5 virions (Ad5-HVR5-DogTag) (human adenovirus serotype 5 (Ad5)) (UniProt P04133).
For assay [2] the target is unchanged. This is another data set of the same source.

Substance “DogCatcher fused to SARS CoV-2 Spike receptor binding domain (Wuhan strain, residues 319-532) (from UniProt P0DTC2 319-532)” came in with a coupling efficiency (% total hexon protein coupled) in assay [1] of 64%.

As to “DogCatcher fused to the receptor binding domain of haemagglutinin (HA) from Influenza A (H1 A/Califo”, the coupling efficiency (% hexon coupled) in assay [2] was 44%.
